Reference: the supplement of paper PMC10065799, “High-throughput profiling of sequence recognition by tyrosine kinases and SH2 domains using bacterial peptide display” (eLife, 2023)

Experiments:
AncSZ = experiment: phosphorylation enrichment, bacterial display (enrichment ratio); higher = better substrate or ligand; peptides without Tyr show the background
EPHB1 = EPHB1 (UniProt P54762); experiment: as above
EPHB2 = EPHB2 (UniProt P29323); experiment: as above
FGFR1 = FGFR1 (UniProt P11362); experiment: as above
FGFR3 = FGFR3 (UniProt P22607); experiment: as above
Fer (mouse) = experiment: as above
Fes = Fes (UniProt P07332); experiment: as above
Fyn = Fyn (UniProt P06241); experiment: as above
Hck = Hck (UniProt P08631); experiment: as above
Jak2 = Jak2 (UniProt O60674); experiment: as above
MERTK = MERTK (UniProt Q12866); experiment: as above
c-Abl (mouse) = experiment: as above
c-Src = experiment: as above
Grb2 SH2 = Grb2 SH2 (UniProt P62993); experiment: SH2 binding enrichment of the phosphorylated peptide, bacterial display (enrichment ratio); higher = better substrate or ligand; peptides without Tyr show the background
SHP2-C SH2 = experiment: as above
c-Src SH2 = experiment: as above
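For SH2 binding enrichment of the phosphorylated peptide, bacterial display in this document: peptide library displayed on the E. coli surface as eCPX fusions, selected cells deep-sequenced, score is each peptide's frequency after selection divided by its frequency in the input.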
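For phosphorylation enrichment, bacterial display in this document: 11-residue human phosphosite peptides and single-mutation variants displayed on the E. coli surface, counted by deep sequencing, each peptide's frequency after selection divided by its frequency in the unselected input library; frequency after pTyr selection over input frequency; kinase dosed for 20-30% of maximal phosphorylation in three min.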

Chain of FGFR1 (P11362 whole entry, looked up): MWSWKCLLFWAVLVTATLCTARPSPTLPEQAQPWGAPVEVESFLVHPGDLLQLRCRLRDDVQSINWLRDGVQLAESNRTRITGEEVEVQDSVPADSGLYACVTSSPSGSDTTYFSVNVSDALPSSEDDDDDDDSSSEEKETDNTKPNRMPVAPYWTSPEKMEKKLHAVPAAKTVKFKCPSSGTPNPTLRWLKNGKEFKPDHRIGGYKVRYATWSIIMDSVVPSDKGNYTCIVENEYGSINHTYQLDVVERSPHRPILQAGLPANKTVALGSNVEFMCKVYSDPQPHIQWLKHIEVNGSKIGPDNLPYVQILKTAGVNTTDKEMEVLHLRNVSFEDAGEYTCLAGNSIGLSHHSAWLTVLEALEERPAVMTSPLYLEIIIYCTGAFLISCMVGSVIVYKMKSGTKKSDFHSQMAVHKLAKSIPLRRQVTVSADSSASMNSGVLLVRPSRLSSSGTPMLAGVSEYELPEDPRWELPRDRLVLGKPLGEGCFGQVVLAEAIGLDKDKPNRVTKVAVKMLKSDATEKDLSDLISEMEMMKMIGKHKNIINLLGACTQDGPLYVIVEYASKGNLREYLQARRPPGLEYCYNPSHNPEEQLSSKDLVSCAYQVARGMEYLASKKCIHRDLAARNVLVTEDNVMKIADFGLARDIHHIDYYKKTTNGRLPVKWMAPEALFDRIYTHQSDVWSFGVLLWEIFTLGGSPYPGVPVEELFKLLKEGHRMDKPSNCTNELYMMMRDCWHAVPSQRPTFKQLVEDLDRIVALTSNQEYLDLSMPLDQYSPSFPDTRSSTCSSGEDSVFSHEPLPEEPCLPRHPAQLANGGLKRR
Chain of FGFR3 (P22607 whole entry, looked up): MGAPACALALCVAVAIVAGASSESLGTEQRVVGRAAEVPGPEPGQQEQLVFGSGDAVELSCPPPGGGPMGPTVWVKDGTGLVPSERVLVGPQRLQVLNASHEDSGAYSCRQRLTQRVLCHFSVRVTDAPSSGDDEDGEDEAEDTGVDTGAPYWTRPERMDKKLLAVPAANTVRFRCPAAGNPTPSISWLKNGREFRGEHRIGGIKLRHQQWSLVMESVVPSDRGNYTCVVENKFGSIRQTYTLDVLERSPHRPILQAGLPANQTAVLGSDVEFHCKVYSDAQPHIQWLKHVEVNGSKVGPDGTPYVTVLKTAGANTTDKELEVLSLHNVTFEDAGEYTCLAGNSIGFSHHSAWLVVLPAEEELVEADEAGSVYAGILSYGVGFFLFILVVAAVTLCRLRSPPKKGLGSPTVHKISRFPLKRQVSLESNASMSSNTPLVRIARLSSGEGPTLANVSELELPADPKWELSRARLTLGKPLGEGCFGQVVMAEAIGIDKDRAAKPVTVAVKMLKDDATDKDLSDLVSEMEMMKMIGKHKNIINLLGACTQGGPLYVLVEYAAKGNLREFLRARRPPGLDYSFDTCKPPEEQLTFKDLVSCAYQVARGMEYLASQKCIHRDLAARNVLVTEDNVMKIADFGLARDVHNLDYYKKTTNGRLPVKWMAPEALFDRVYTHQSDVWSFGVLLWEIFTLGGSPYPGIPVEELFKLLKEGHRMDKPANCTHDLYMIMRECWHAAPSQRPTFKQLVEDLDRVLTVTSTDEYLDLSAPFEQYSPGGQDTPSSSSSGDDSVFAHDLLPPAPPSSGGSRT
Chain of Fyn (P06241 whole entry, looked up): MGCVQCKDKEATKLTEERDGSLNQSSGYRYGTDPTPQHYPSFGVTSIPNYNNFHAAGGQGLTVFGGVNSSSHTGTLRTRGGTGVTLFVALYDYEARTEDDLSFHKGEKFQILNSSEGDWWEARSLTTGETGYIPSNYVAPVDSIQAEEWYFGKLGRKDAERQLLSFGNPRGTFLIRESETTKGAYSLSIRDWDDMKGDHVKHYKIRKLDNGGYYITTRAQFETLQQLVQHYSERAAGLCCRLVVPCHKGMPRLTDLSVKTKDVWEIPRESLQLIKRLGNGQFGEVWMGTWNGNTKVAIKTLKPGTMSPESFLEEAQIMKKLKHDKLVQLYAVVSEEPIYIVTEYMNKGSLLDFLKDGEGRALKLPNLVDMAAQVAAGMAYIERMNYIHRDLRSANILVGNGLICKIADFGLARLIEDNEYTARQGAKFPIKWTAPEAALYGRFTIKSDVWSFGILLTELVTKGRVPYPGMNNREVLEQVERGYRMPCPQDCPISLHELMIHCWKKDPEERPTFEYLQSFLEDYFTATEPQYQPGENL
Chain of EPHB1 (P54762 whole entry, looked up): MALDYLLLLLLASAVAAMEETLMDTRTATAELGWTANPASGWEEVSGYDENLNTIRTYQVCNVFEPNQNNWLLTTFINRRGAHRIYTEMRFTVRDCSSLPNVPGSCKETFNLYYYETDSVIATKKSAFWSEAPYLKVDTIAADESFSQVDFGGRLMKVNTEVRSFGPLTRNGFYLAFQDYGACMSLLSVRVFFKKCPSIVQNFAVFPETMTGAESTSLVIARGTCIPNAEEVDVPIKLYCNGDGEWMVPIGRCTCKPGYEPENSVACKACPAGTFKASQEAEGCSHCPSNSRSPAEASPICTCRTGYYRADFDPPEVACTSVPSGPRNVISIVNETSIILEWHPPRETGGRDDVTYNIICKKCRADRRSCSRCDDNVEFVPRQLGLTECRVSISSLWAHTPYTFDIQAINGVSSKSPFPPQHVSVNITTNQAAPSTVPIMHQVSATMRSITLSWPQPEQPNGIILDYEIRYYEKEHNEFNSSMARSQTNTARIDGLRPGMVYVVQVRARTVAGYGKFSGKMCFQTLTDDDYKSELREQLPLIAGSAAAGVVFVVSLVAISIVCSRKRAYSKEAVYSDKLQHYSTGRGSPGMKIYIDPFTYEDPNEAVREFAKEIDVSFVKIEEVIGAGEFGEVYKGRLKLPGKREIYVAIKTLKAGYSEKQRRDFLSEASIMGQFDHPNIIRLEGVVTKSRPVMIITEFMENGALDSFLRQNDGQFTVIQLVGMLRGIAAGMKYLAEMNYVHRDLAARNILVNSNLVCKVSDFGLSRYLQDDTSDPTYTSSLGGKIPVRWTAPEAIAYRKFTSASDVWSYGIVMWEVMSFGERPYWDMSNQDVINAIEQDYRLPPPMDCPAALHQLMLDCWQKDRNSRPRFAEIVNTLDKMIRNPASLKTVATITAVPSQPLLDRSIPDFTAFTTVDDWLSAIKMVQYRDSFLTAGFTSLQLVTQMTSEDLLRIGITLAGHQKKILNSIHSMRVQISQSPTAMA
Chain of Jak2 (O60674 whole entry, looked up): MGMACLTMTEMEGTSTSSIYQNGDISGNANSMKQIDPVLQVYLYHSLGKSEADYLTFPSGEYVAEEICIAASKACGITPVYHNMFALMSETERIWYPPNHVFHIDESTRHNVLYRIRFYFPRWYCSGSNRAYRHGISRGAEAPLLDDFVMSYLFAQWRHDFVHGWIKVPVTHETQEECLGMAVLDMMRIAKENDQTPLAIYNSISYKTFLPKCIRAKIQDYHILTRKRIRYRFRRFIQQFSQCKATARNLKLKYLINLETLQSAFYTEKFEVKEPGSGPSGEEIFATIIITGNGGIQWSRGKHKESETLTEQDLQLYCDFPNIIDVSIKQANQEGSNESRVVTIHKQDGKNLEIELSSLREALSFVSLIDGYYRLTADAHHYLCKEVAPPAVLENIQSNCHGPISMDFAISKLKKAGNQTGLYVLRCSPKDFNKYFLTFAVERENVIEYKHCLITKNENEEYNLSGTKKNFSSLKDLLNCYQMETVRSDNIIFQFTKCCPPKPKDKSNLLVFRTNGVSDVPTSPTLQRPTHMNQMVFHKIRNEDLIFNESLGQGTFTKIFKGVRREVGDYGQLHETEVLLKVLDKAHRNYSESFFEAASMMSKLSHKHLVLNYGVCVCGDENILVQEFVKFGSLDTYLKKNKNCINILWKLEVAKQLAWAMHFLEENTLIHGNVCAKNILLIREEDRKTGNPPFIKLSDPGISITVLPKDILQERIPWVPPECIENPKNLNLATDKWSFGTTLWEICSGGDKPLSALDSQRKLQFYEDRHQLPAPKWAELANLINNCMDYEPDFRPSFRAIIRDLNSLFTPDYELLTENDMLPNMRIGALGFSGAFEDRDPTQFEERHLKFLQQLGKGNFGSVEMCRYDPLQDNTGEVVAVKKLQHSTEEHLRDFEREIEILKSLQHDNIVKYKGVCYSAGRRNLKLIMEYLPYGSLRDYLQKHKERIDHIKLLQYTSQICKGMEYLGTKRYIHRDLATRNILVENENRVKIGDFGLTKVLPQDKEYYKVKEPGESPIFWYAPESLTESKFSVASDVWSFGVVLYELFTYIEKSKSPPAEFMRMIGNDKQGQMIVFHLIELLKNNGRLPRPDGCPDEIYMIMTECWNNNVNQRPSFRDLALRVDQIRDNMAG
Chain of Hck (P08631 whole entry, looked up): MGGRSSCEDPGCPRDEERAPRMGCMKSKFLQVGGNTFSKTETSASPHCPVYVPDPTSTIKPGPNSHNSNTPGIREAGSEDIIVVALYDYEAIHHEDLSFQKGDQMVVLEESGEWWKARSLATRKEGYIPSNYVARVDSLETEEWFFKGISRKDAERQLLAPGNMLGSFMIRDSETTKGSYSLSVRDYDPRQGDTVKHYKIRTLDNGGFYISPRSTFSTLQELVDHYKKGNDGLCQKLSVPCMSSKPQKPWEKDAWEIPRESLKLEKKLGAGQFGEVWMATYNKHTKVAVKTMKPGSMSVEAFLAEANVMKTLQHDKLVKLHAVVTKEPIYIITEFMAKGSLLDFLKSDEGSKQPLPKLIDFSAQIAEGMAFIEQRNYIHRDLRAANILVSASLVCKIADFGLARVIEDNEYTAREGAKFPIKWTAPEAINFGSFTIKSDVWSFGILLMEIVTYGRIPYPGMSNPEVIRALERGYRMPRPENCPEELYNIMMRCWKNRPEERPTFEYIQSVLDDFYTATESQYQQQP
Chain of Grb2 SH2 (P62993 whole entry, looked up): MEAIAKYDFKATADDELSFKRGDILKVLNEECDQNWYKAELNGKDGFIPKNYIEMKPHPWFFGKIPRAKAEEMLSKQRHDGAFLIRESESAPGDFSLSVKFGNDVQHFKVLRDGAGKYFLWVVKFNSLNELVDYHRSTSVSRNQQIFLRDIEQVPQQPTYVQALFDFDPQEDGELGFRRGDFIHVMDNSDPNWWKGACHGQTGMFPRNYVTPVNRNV

| Sequence | phosphorylation enrichment (AncSZ) | phosphorylation enrichment (EPHB1) | phosphorylation enrichment (EPHB2) | phosphorylation enrichment (FGFR1) | phosphorylation enrichment (FGFR3) | phosphorylation enrichment (Fer (mouse)) | phosphorylation enrichment (Fes) | phosphorylation enrichment (Fyn) | phosphorylation enrichment (Hck) | phosphorylation enrichment (Jak2) | phosphorylation enrichment (MERTK) | phosphorylation enrichment (c-Abl (mouse)) | phosphorylation enrichment (c-Src) | SH2 binding enrichment (Grb2 SH2) | SH2 binding enrichment (SHP2-C SH2) | SH2 binding enrichment (c-Src SH2) |
| --- | --- | --- | --- | --- | --- | --- | --- | --- | --- | --- | --- | --- | --- | --- | --- | --- |
| FNNFGYGNDGF [HNRNPH3_Y161_YF] | 0.828 | 0.403 | 0.518 | 0.546 | 0.557 | 0.499 | 0.939 | 0.505 | 0.447 | 0.937 | 0.491 | 0.606 | 0.507 | 0.936 | 0.704 | 0.554 |
| TSSSRYFDEPV [ARFGAP3_Y356_S355R] | 0.792 | 0.508 | 0.395 | 0.597 | 0.688 | 0.417 | 0.839 | 0.511 | 0.495 | 0.61 | 0.391 | 0.447 | 0.399 | 0.725 | 0.745 | 0.475 |
| GFPVHYTGVSN [DNMT3B_Y815_D817G] | 0.545 | 0.38 | 0.424 | 0.392 | 0.413 | 0.453 | 0.598 | 0.359 | 0.438 | 0.424 | 0.361 | 0.608 | 0.358 | 0.878 | 2.09 | 1.06 |
| QLPATCMNLGP [MST1R_Y1360_Y1360C] | 1.29 | 0.668 | 0.683 | 0.615 | 0.913 | 0.621 | 1.2 | 0.817 | 0.554 | 1.14 | 0.533 | 1.06 | 0.632 | 0.822 | 0.439 | 0.539 |
| EYQLPYYNMVP [BMPR1A_Y457] | 6.15 | 2.81 | 3.64 | 14.1 | 11.9 | 5.56 | 1.12 | 3.83 | 3.23 | 9.58 | 7.06 | 3 | 5.13 | 9.58 | 1.87 | 3.74 |
| HQPGEYLFHAE [FLT3_Y416_I417L] | 1.09 | 0.527 | 0.724 | 0.628 | 0.691 | 0.554 | 1.13 | 0.481 | 0.756 | 1.29 | 0.617 | 1.21 | 0.879 | 0.742 | 1.19 | 0.514 |
| HFPFQYHRQLY [F12_Y53] | 1.03 | 0.583 | 0.572 | 0.449 | 0.865 | 0.725 | 1.28 | 0.59 | 0.656 | 0.723 | 0.566 | 0.508 | 0.471 | 1.27 | 2.15 | 1.28 |
| ELANLYHHVWM [BICD2_Y538_C542W] | 1.32 | 6.35 | 1.93 | 6.38 | 4.76 | 12.9 | 1.25 | 2.75 | 5.11 | 1.3 | 6.21 | 0.918 | 2.51 | 0.869 | 0.835 | 0.816 |
| WAKPEYTGGFK | 0.544 | 0.438 | 0.468 | 0.48 | 0.462 | 0.332 | 0.732 | 0.411 | 0.364 | 0.574 | 0.397 | 0.743 | 0.417 | 0.971 | 0.758 | 0.478 |
| VVTGLYEKPSL [KIR3DS1_Y221] | 1.36 | 4.21 | 7.7 | 0.456 | 0.537 | 13.2 | 0.66 | 2.3 | 6.03 | 0.623 | 9.59 | 17.3 | 1.05 | 0.722 | 0.461 | 0.859 |
| KMLEKYKEQLN [TLK2_Y259_R262Q] | 0.721 | 0.585 | 0.598 | 0.604 | 0.56 | 0.539 | 0.864 | 0.503 | 0.53 | 0.507 | 0.393 | 0.51 | 0.336 | 1.01 | 0.619 | 0.426 |
| AGQEDYDRLRS [RHOA_Y66_P71S] | 0.96 | 0.582 | 0.513 | 0.475 | 0.639 | 0.795 | 1.38 | 0.555 | 0.638 | 1.05 | 0.466 | 0.741 | 0.609 | 0.596 | 0.657 | 0.554 |
| QMVGKYASSFM [AVPR2_Y124_M123K_YF] | 0.613 | 0.772 | 0.341 | 0.516 | 0.626 | 0.431 | 0.992 | 0.564 | 0.413 | 0.774 | 0.642 | 1.15 | 0.635 | 0.894 | 0.732 | 0.467 |
| VVQGLYKSMRK [KBTBD2_Y250_P254R] | 0.628 | 0.397 | 0.432 | 0.403 | 0.358 | 0.372 | 0.464 | 0.421 | 0.351 | 0.522 | 0.482 | 0.519 | 0.391 | 0.68 | 0.652 | 0.462 |
| ASFGPYTRVQS [FOXL2_Y258_YF] | 0.61 | 0.524 | 0.381 | 0.527 | 0.494 | 0.409 | 0.606 | 0.515 | 0.483 | 0.669 | 0.498 | 0.449 | 0.481 | 0.655 | 4.01 | 1.43 |
| KPLMPSMRFSR [SMARCE1_Y73_Y73S_YF] | 0.828 | 0.392 | 0.399 | 0.396 | 0.463 | 0.35 | 0.876 | 0.424 | 0.413 | 0.685 | 0.459 | 0.737 | 0.543 | 0.831 | 0.675 | 0.569 |
| GQRDLYSGLNE [CD3E_Y199_Q204E] | 1.23 | 1.12 | 1.3 | 0.555 | 0.653 | 1.94 | 0.89 | 4.4 | 9.08 | 0.716 | 2.58 | 0.566 | 5.28 | 0.878 | 0.64 | 0.724 |

| Sequence | phosphorylation enrichment (AncSZ) | phosphorylation enrichment (EPHB1) | phosphorylation enrichment (EPHB2) | phosphorylation enrichment (FGFR1) | phosphorylation enrichment (FGFR3) | phosphorylation enrichment (Fer (mouse)) | phosphorylation enrichment (Fes) | phosphorylation enrichment (Fyn) | phosphorylation enrichment (Hck) | phosphorylation enrichment (Jak2) | phosphorylation enrichment (MERTK) | phosphorylation enrichment (c-Abl (mouse)) | phosphorylation enrichment (c-Src) | SH2 binding enrichment (Grb2 SH2) | SH2 binding enrichment (SHP2-C SH2) | SH2 binding enrichment (c-Src SH2) |
| --- | --- | --- | --- | --- | --- | --- | --- | --- | --- | --- | --- | --- | --- | --- | --- | --- |
| EEQKKYSNAMK [SCN5A_Y1494_Y1495S] | 0.611 | 0.429 | 0.539 | 0.456 | 0.529 | 0.353 | 0.723 | 0.377 | 0.37 | 0.56 | 0.327 | 0.772 | 0.404 | 0.82 | 0.617 | 0.497 |
| AAESTYDKILK [GDNF_Y156_T154S] | 0.681 | 0.463 | 0.508 | 0.391 | 0.586 | 0.418 | 0.886 | 0.76 | 1.75 | 0.682 | 0.401 | 0.563 | 0.719 | 1.08 | 0.672 | 5.23 |
| YPRTGYSVPYG [TGM1_Y370_L366P] | 0.714 | 0.418 | 0.519 | 0.525 | 0.545 | 0.383 | 0.78 | 0.459 | 0.453 | 0.925 | 0.55 | 0.681 | 0.406 | 1.01 | 0.854 | 5.88 |
| ADDSFYTVRSA [ZAP70_Y493_A495V_YF] | 0.884 | 0.439 | 0.478 | 0.444 | 0.748 | 0.489 | 0.999 | 1.21 | 1.22 | 0.829 | 0.552 | 0.734 | 1.53 | 0.701 | 0.556 | 0.466 |
| TQRPHYKGGGG [TYROBP_Y112_Y111H] | 0.558 | 0.349 | 0.587 | 0.45 | 0.76 | 0.565 | 0.686 | 0.496 | 0.535 | 0.676 | 0.433 | 0.97 | 0.454 | 1.55 | 1.39 | 1.27 |
| IEKLTYIDEWF [CPS1_Y872_K875E] | 1.18 | 0.624 | 0.557 | 0.567 | 0.737 | 0.548 | 1.35 | 0.453 | 0.472 | 1.17 | 0.488 | 0.81 | 0.544 | 0.698 | 0.719 | 0.488 |
| PLQKTYNFNVL [SLC4A1_Y553_YF] | 0.686 | 0.709 | 0.645 | 0.554 | 0.593 | 0.383 | 0.903 | 0.602 | 0.477 | 1.05 | 0.426 | 0.627 | 0.43 | 1.11 | 0.633 | 0.53 |
| HSDDDYDDPEL [CLNK_Y69] | 1.67 | 0.477 | 0.719 | 0.646 | 0.756 | 0.399 | 1.74 | 0.439 | 0.846 | 1.48 | 0.664 | 1.06 | 0.753 | 0.779 | 0.829 | 0.607 |
| RETPLYKACER [ASB2_Y162] | 0.777 | 0.441 | 0.573 | 0.457 | 0.759 | 0.504 | 1.13 | 0.457 | 0.577 | 0.632 | 0.527 | 1.02 | 0.568 | 1.42 | 1.27 | 0.855 |
| ERDFTYEELLN [EIF2S2_Y176_YF] | 1.23 | 0.628 | 0.515 | 0.527 | 0.692 | 0.69 | 1.12 | 0.678 | 0.855 | 1.01 | 0.492 | 0.66 | 0.675 | 1.14 | 0.715 | 0.69 |
| VNLVLYLSIAK [FBXO15_Y496] | 1.13 | 0.438 | 0.628 | 0.581 | 0.867 | 0.443 | 1.73 | 0.462 | 0.527 | 1.28 | 0.572 | 1.25 | 0.512 | 0.829 | 0.388 | 0.426 |
| LIGWRYDDPEV [HSPA9_Y128_R126W] | 0.984 | 0.544 | 0.859 | 0.419 | 0.607 | 0.416 | 1.24 | 0.538 | 0.471 | 1.17 | 0.451 | 0.652 | 0.43 | 1.01 | 1 | 3.68 |
| HSDFQYGQRSQ [PKP2_Y168_S169G_YF] | 0.641 | 0.632 | 0.628 | 0.495 | 0.639 | 0.78 | 1.25 | 0.766 | 0.587 | 0.727 | 0.511 | 0.509 | 0.682 | 0.737 | 0.675 | 0.394 |
| YEAMEYLESKQ [BTK_Y511_C506Y] | 1.84 | 2.15 | 0.843 | 1.15 | 1.04 | 3.06 | 1.28 | 0.654 | 0.805 | 1.14 | 3.12 | 0.836 | 0.568 | 0.646 | 0.649 | 10 |
| VPDANYTSDEE [STK33_Y439] | 1.54 | 0.649 | 0.801 | 0.699 | 0.796 | 0.658 | 1.38 | 0.701 | 0.61 | 1.19 | 0.621 | 2.42 | 0.586 | 0.885 | 1.11 | 0.726 |
| FASAEYQEALS [GALNS_Y461] | 0.949 | 0.454 | 0.466 | 0.482 | 0.618 | 0.369 | 0.858 | 0.454 | 0.481 | 0.759 | 0.348 | 0.505 | 0.485 | 0.734 | 0.598 | 0.569 |
